T1: recombinant human IGSF8 extracellular domain tagged by a human Fc region (IGSF8-hFc) (human, UniProt Q969P0 28-579, biotin label in Examples 17, 18 and 28 (site not given))
T1 construct: also called IGSF8-Fc fusion protein; IGSF8-hFc-biotin; not shown: human Fc region
T1 sequence: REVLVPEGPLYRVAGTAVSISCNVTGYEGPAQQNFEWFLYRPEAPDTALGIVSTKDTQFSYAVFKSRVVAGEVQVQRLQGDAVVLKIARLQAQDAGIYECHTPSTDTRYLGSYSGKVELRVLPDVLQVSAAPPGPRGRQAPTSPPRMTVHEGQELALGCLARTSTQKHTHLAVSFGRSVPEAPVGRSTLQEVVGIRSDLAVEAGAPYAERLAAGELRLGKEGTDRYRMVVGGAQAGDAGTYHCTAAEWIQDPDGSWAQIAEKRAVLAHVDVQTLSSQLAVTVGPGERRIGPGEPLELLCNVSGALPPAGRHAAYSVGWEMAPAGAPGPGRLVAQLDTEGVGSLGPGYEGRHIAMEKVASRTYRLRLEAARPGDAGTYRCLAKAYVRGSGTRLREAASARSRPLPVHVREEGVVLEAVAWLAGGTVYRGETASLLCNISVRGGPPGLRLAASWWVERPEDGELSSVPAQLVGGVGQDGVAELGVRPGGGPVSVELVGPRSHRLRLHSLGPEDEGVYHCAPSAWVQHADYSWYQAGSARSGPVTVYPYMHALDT

B1: L1VH-D99N (antibody, V domains shown)
VH: QVQLVESGGGVVQPGRSLRLSCAASGFTFSTYGMHWVRQAPGKGLEWVAVIWDDGSYKYYGDSVKGRFTISRDNSKNTLYLQMNSLRAEDTAVYYCARNGSGWGYAFDIWGQGTMVTVSS
VL: DIQLTQSPSSLSASVGDRVTITCQASQDISEYLNWYQHKPGKAPNPLVFDAANLETGVPPRFSATGSGTDFSLTITSLQPEDFATYYCQQYDSFPYTFGQGTRLDIK
B2: L1VH-W52L (antibody, V domains shown)
VH: QVQLVESGGGVVQPGRSLRLSCAASGFTFSTYGMHWVRQAPGKGLEWVAVILDDGSYKYYGDSVKGRFTISRDNSKNTLYLQMNSLRAEDTAVYYCARDGSGWGYAFDIWGQGTMVTVSS
VL: DIQLTQSPSSLSASVGDRVTITCQASQDISEYLNWYQHKPGKAPNPLVFDAANLETGVPPRFSATGSGTDFSLTITSLQPEDFATYYCQQYDSFPYTFGQGTRLDIK
notes: mutant of the L1 antibody
B3: L1VL-P46L (antibody, V domains shown)
VH: QVQLVESGGGVVQPGRSLRLSCAASGFTFSTYGMHWVRQAPGKGLEWVAVIWDDGSYKYYGDSVKGRFTISRDNSKNTLYLQMNSLRAEDTAVYYCARDGSGWGYAFDIWGQGTMVTVSS
VL: DIQLTQSPSSLSASVGDRVTITCQASQDISEYLNWYQHKPGKAPNLLVFDAANLETGVPPRFSATGSGTDFSLTITSLQPEDFATYYCQQYDSFPYTFGQGTRLDIK
B4: L1VL-Q24H (antibody, V domains shown)
VH: QVQLVESGGGVVQPGRSLRLSCAASGFTFSTYGMHWVRQAPGKGLEWVAVIWDDGSYKYYGDSVKGRFTISRDNSKNTLYLQMNSLRAEDTAVYYCARDGSGWGYAFDIWGQGTMVTVSS
VL: DIQLTQSPSSLSASVGDRVTITCHASQDISEYLNWYQHKPGKAPNPLVFDAANLETGVPPRFSATGSGTDFSLTITSLQPEDFATYYCQQYDSFPYTFGQGTRLDIK
B5: L1VL-V48D (antibody, V domains shown)
VH: QVQLVESGGGVVQPGRSLRLSCAASGFTFSTYGMHWVRQAPGKGLEWVAVIWDDGSYKYYGDSVKGRFTISRDNSKNTLYLQMNSLRAEDTAVYYCARDGSGWGYAFDIWGQGTMVTVSS
VL: DIQLTQSPSSLSASVGDRVTITCQASQDISEYLNWYQHKPGKAPNPLDFDAANLETGVPPRFSATGSGTDFSLTITSLQPEDFATYYCQQYDSFPYTFGQGTRLDIK
B6: L1VL-Y91F (antibody, V domains shown)
VH: QVQLVESGGGVVQPGRSLRLSCAASGFTFSTYGMHWVRQAPGKGLEWVAVIWDDGSYKYYGDSVKGRFTISRDNSKNTLYLQMNSLRAEDTAVYYCARDGSGWGYAFDIWGQGTMVTVSS
VL: DIQLTQSPSSLSASVGDRVTITCQASQDISEYLNWYQHKPGKAPNPLVFDAANLETGVPPRFSATGSGTDFSLTITSLQPEDFATYYCQQFDSFPYTFGQGTRLDIK
B7: L1-16 (antibody, V domains shown)
VH: QVQLVESGGGVVQPGRSLRLSCAASGFTFSTYGMHWVRQAPGKGLEWVAVIWDDGSYKYYGDSVKGRFTISRDNSKNTLYLQMNSLRAEDTAVYYCARDGSGWGYAFDIWGQGTLVTVSS
VL: DIQMTQSPSSLSASVGDRVTITCQASQDIGPWLNWYQQKPGKAPKLLIYGSPNLETGVPSRFSGSGSGTDFTFTISSLQPEDIATYYCQQYDSFPYTFGQGTKVEIK
B8: L1-17 (antibody, V domains shown)
VH: QVQLVESGGGVVQPGRSLRLSCAASGFTFSTYGMHWVRQAPGKGLEWVAVIWDDGSYKYYGDSVKGRFTISRDNSKNTLYLQMNSLRAEDTAVYYCARDGSGWGYAFDIWGQGTLVTVSS
VL: DIQMTQSPSSLSASVGDRVTITCQASQDIGPWLNWYQQKPGKAPKLLIYDAPNLETGVPSRFSGSGSGTDFTFTISSLQPEDIATYYCQQYDSFPYTFGQGTKVEIK
B9: L1-19 (antibody, V domains shown)
VH: QVQLVESGGGVVQPGRSLRLSCAASGFTFSTYGMHWVRQAPGKGLEWVAVIWDDGSYKYYGDSVKGRFTISRDNSKNTLYLQMNSLRAEDTAVYYCARDGSGWGYAFDIWGQGTLVTVSS
VL: DIQMTQSPSSLSASVGDRVTITCQASQDISPYLNWYQQKPGKAPKLLIYDAPNLETGVPSRFSGSGSGTDFTFTISSLQPEDIATYYCQQYDSFPYTFGQGTKVEIK
B10: L1-21 (antibody, V domains shown)
VH: QVQLVESGGGVVQPGRSLRLSCAASGFTFSTYGMHWVRQAPGKGLEWVAVIWDDGSYKYYGDSVKGRFTISRDNSKNTLYLQMNSLRAEDTAVYYCARDGSGWGYAFDIWGQGTLVTVSS
VL: DIQLTQSPSSLSASVGDRVTITCQASQDIGPWLNWYQHKPGKAPKPLIYGSPNLETGVPSRFSGSGSGTDFTFTISSLQPEDIATYYCQQYDSFPYTFGQGTKVEIK
B11: L1-22 (antibody, V domains shown)
VH: QVQLVESGGGVVQPGRSLRLSCAASGFTFSTYGMHWVRQAPGKGLEWVAVIWDDGSYKYYGDSVKGRFTISRDNSKNTLYLQMNSLRAEDTAVYYCARDGSGWGYAFDIWGQGTLVTVSS
VL: DIQLTQSPSSLSASVGDRVTITCQASQDISPWLNWYQHKPGKAPKPLIYGSPNLETGVPSRFSGSGSGTDFTFTISSLQPEDIATYYCQQYDSFPYTFGQGTKVEIK
B12: L1-23 (antibody, V domains shown)
VH: QVQLVESGGGVVQPGRSLRLSCAASGFTFSTYGMHWVRQAPGKGLEWVAVIWDDGSYKYYGDSVKGRFTISRDNSKNTLYLQMNSLRAEDTAVYYCARDGSGWGYAFDIWGQGTLVTVSS
VL: DIQLTQSPSSLSASVGDRVTITCQASQDIGPWLNWYQHKPGKAPKPLVFGSPNLETGVPSRFSASGSGTDFTLTISSLQPEDFATYYCQQYDSFPYTFGQGTKVEIK
B13: L1-24 (antibody, V domains shown)
VH: QVQLVESGGGVVQPGRSLRLSCAASGFTFSTYGMHWVRQAPGKGLEWVAVIWDDGSYKYYGDSVKGRFTISRDNSKNTLYLQMNSLRAEDTAVYYCARDGSGWGYAFDIWGQGTLVTVSS
VL: DIQLTQSPSSLSASVGDRVTITCQASQDIGPYLNWYQHKPGKAPKPLVFGSPNLETGVPSRFSASGSGTDFTLTISSLQPEDFATYYCQQYDSFPYTFGQGTKVEIK
B14: L1-25 (antibody, V domains shown)
VH: QVQLVESGGGVVQPGRSLRLSCAASGFTFSTYGMHWVRQAPGKGLEWVAVIWDDGSYKYYGDSVKGRFTISRDNSKNTLYLQMNSLRAEDTAVYYCARDGSGWGYAFDIWGQGTLVTVSS
VL: DIQLTQSPSSLSASVGDRVTITCQASQDISPWLNWYQHKPGKAPKPLVFGSPNLETGVPSRFSASGSGTDFTLTISSLQPEDFATYYCQQYDSFPYTFGQGTKVEIK
B15: L1-26 (antibody, V domains shown)
VH: QVQLVESGGGVVQPGRSLRLSCAASGFTFSTYGMHWVRQAPGKGLEWVAVIWDDGSYKYYGDSVKGRFTISRDNSKNTLYLQMNSLRAEDTAVYYCARDGSGWGYAFDIWGQGTLVTVSS
VL: DIQLTQSPSSLSASVGDRVTITCQASQDISPYLNWYQHKPGKAPKPLVFGSPNLETGVPSRFSASGSGTDFTLTISSLQPEDFATYYCQQYDSFPYTFGQGTKVEIK
B16: L1-27 (antibody, V domains shown)
VH: QVQLVESGGGVVQPGRSLRLSCAASGFTFSTYGMHWVRQAPGKGLEWVAVIWDDGSYKYYGDSVKGRFTISRDNSKNTLYLQMNSLRAEDTAVYYCARDGSGWGYAFDIWGQGTLVTVSS
VL: DIQLTQSPSSLSASVGDRVTITCQASQDISYNLNWYQHKPGKAPKPLVFGSPNLETGVPSRFSASGSGTDFTLTISSLQPEDFATYYCQQYDSFPYTFGQGTKVEIK
B17: L1-28 (antibody, V domains shown)
VH: QVQLVESGGGVVQPGRSLRLSCAASGFTFSTYGMHWVRQAPGKGLEWVAVIWDDGSYKYYGDSVKGRFTISRDNSKNTLYLQMNSLRAEDTAVYYCARDGSGWGYAFDIWGQGTLVTVSS
VL: DIQLTQSPSSLSASVGDRVTITCQASQDIEWWLNWYQHKPGKAPKPLIYGSPNLETGVPSRFSGSGSGTDFTFTISSLQPEDIATYYCQQYDSFPYTFGQGTKVEIK
B18: L1-29 (antibody, V domains shown)
VH: QVQLVESGGGVVQPGRSLRLSCAASGFTFSTYGMHWVRQAPGKGLEWVAVIWDDGSYKYYGDSVKGRFTISRDNSKNTLYLQMNSLRAEDTAVYYCARDGSGWGYAFDIWGQGTLVTVSS
VL: DIQLTQSPSSLSASVGDRVTITCQASQDIGPWLNWYQHKPGKAPKPLVFDAPNLETGVPSRFSASGSGTDFTLTISSLQPEDFATYYCQQYDSFPYTFGQGTKVEIK

Target: T1, recombinant human IGSF8 extracellular …
Experiment: SPR, Ab captured
Procedure: The binding affinities of the L1 and L2 antibodies to IGSF8 recombinant protein were determined by surface plasmon resonance (SPR). Briefly, anti-human Fab antibody was imobilized on acarboxyl-derivatized SPR chip surface, and the antibodies were captured on the resulting surface at 5 μg/ml for 30 seconds.

First: B1
Second: B2
The Kd of the first is 6.2-fold lower: 138 nM for the first, 855 nM for the second.

B3 and B4 are within 1.5-fold of each other in Kd: 124 nM for the first, 144 nM for the second.

Going from B5 to B6, the Kd falls from 708 nM to 321 nM (2.2-fold).

B7 and B8 are within 1.5-fold of each other in Kd: 3.33 nM for the first, 3.78 nM for the second.

B9 and B10 are within 1.5-fold of each other in Kd: 4.58 nM for the first, 6.71 nM for the second.

Compared with B11, B12 is 1300-fold lower in Kd: 2.94 nM for the first, 0.00235 nM for the second. The second binds more tightly here.

Compared with B13, B14 is 660-fold higher in Kd: 0.0068 nM for the first, 4.46 nM for the second. The first binds more tightly here.

Compared with B15, B16 is 1.9-fold higher in Kd: 0.987 nM for the first, 1.88 nM for the second. The first binds more tightly here.

First: B17
Second: B18
The Kd of the first is 9.6-fold lower: 0.00117 nM for the first, 0.0112 nM for the second. The first binds more tightly here.

Going from B1 to B2, the koff rises from 0.00246 s⁻¹ to 0.0165 s⁻¹ (6.7-fold).

Compared with B3, B4 is 2.3-fold higher in koff: 0.00341 s⁻¹ for the first, 0.00775 s⁻¹ for the second.

Going from B5 to B6, the koff falls from 0.023 s⁻¹ to 0.00145 s⁻¹ (16-fold).

B7 and B8 are within 1.5-fold of each other in koff: 0.00111 s⁻¹ for the first, 0.0012 s⁻¹ for the second.

First: B9
Second: B10
The koff of the first is 3.9-fold lower: 0.000705 s⁻¹ for the first, 0.00272 s⁻¹ for the second.

Compared with B11, B12 is 310-fold lower in koff: 0.000363 s⁻¹ for the first, 1.19e-06 s⁻¹ for the second.

Going from B13 to B14, the koff rises from 3.06e-06 s⁻¹ to 0.0022 s⁻¹ (720-fold).

Going from B15 to B16, the koff rises from 0.000497 s⁻¹ to 0.000835 s⁻¹ (1.7-fold).

Compared with B17, B18 is 9.9-fold higher in koff: 4.28e-07 s⁻¹ for the first, 4.25e-06 s⁻¹ for the second.

B1 and B2 are within 1.5-fold of each other in kon: 17800 M⁻¹ s⁻¹ for the first, 19300 M⁻¹ s⁻¹ for the second.

Going from B3 to B4, the kon rises from 27500 M⁻¹ s⁻¹ to 53700 M⁻¹ s⁻¹ (2-fold).

Going from B5 to B6, the kon falls from 32400 M⁻¹ s⁻¹ to 4500 M⁻¹ s⁻¹ (7.2-fold).

B7 and B8 are within 1.5-fold of each other in kon: 333000 M⁻¹ s⁻¹ for the first, 318000 M⁻¹ s⁻¹ for the second.

First: B9
Second: B10
The kon of the first is 2.6-fold lower: 154000 M⁻¹ s⁻¹ for the first, 406000 M⁻¹ s⁻¹ for the second.

First: B11
Second: B12
The kon of the first is 4.1-fold lower: 123000 M⁻¹ s⁻¹ for the first, 506000 M⁻¹ s⁻¹ for the second.

B13 and B14 are within 1.5-fold of each other in kon: 450000 M⁻¹ s⁻¹ for the first, 492000 M⁻¹ s⁻¹ for the second.

B15 and B16 are within 1.5-fold of each other in kon: 503000 M⁻¹ s⁻¹ for the first, 444000 M⁻¹ s⁻¹ for the second.

B17 and B18 are within 1.5-fold of each other in kon: 367000 M⁻¹ s⁻¹ for the first, 381000 M⁻¹ s⁻¹ for the second.
